Reference: patent US20190241619A1

B1: HPV16 E7/14-23 peptide … (peptide)
peptide: DLQPETTDLY
modifications: not checked
B2: HPV16 E7/18-25 peptide ETTDLYCY (peptide)
peptide: ETTDLYCY
modifications: not checked
B3: HPV16 E7/11-21 peptide … (peptide)
peptide: YMLDLQPETTD
modifications: not checked
B4: HPV16 E7/11-18 peptide YMLDLQPE (peptide)
peptide: YMLDLQPE
modifications: not checked
B5: HPV16 E7/12-20 peptide … (peptide)
peptide: MLDLQPETT
modifications: not checked
B6: HPV16 E7/12-19 peptide MLDLQPET (peptide)
peptide: MLDLQPET
modifications: not checked
B7: HPV16 E7/11-20 peptide … (peptide)
peptide: YMLDLQPETT
modifications: not checked

Molecular target: HLA-A1 (human)
Test: experimental peptide-HLA binding affinity; method not described

| Binder | Binding affinity [µM] |
| --- | --- |
| B1 | 1.62 |
| B2 | 11.5 |

Molecular target: HLA-A2 (human)
Test: as above

| Binder | Binding affinity [µM] |
| --- | --- |
| B3 | 2.37 |
| B4 | 8.07 |
| B5 | 3.6 |
| B6 | 53.7 |
| B7 | 2.19 |
